The source of these data is US20250064951A1, “DENDRITIC POLYELECTROLYTE ZWITTERIONS, JANUS-TYPE CONJUGATE COMPRISING SAME AND USES THEREOF” (ArtProBio Co., Ltd., priority 2023, published 2025).

In data set [1] the test system is HCT116 cells. Nature of the data set: Cytotoxicity, WST-8 assay in HCT116 cells. Format: cell-based, human. The note with it: 0, 1.25, 2.5, 5, 10 μM, 4 hours. Here is the method: The cytotoxicity of the G2 Janus-type dendritic polyelectrolyte zwitterions according to the present disclosure (JDPZ, (+M)2(−M)2 conjugate_1) was analyzed using HCT116 cells (human colon cancer cells). Specifically, HCT116 cells were subcultured in DMEM supplemented with 10% FBS (fetal bovine serum), dispensed into each well at 1×10^4 cells/well, and cultured at 37° C. for 24 hours. The cells were treated with the samples (Example 5-1 and Comparative Examples 1-1 to 1-3) at various concentrations (0, 1.25, 2.5, 5, 10 μM), respectively, and incubated at 37° C. for 4 hours. WST-8 solution was added to the cultured cells, and absorbance was measured at 450 nm with a microplate reader (Perkin-Elmer, USA) 4 hours later.

Data set [2] concerns HCT116 cells. The experiment in a line: Intracellular delivery efficiency in HCT116 cells by flow cytometry. Format: cell-based, human. The note with it: summary statement, b342. Here is the method: To confirm the intracellular delivery efficiency, HCT116 cells were subcultured in DMEM supplemented with 10% FBS (fetal bovine serum), dispensed into each well at 1-3×10^4 cells/well, and cultured at 37° C. for 24 hours. The cells were treated with the (+6)2(−6)2 conjugate_FAM prepared in Example 6-2 at a concentration of 10 μM and incubated at 37° C. for 4 hours. Afterwards, the cells were washed with Dulbecco's phosphate-buffered saline (DPBS), trypsinized, resuspended in DPBS supplemented with 10% cell dissociation buffer (GIBCO) and 1% FBS, and then analyzed using a flow cytometer (BD LSR II SORT flow cytometer, BD Bioscience, USA) for analysis of intracellular fluorescence.
(A flow cytometer gives signals particle by particle.)

Data set [3] has as its target BSA (Bos taurus, UniProt P02769). The experiment in a line: EMSA of non-fouling property for proteins (BSA). Conditions: 1 μg BSA; various peptide/BSA (w/w) ratios; room temperature 1 hour. It counts as binding. The text has this:
The mixing ratio was R/B ratio, wherein the R/B ratio was arginine/BSA ratio. […] For visualization, the bands were stained with Coomassie brilliant blue R-250.
The mixing ratio was peptide/BSA ratio, wherein the peptide/BSA ratio was peptide/BSA (w/w). […] For visualization, the bands were stained with Coomassie brilliant blue R-250.

In data set [4] the test system is yeast rRNA. The experiment in a line: EMSA of non-fouling property for rRNA. Format: binding. The note with it: 200 ng yeast rRNA; various peptide/RNA (w/w) ratios; room temperature 1 hour. Here is the method: It was confirmed through EMSA (electrophoretic mobility shift assay) that the dendrimer structure of the present disclosure has non-fouling property for various genetic materials present in the body when administered in vivo. 200 ng of yeast rRNA (ribosomal RNA) was prepared as a model genetic material and mixed with the Janus-type dendritic polyelectrolyte zwitterion of Example 5-4 (JDPZ ((+6)2(−6)2 conjugate_1)) at various concentration ratios. The mixing ratio was peptide/RNA ratio, wherein the peptide/RNA ratio was peptide/RNA (w/w). After reacting the mixture at room temperature for 1 hour, electrophoresis was performed on a 2% agarose gel at 90 V for 100 minutes. For visualization, the bands were stained with SYBR Gold nucleic acid gel stain (Invitrogen, USA).
The Janus-type dendrimer structure of Comparative Example 1-2 ((+3)2(Ø3)2 conjugate) was used as a control group instead of the JDPZ of Example 5-4 ((+6)2(−6)2 conjugate_1).
On the technique in general: In EMSA bound probe runs differently from free probe, usually more slowly.

The nature of data set [5]: DLS size, size distribution and zeta potential. It counts as physicochemical.

Sequence of BSA (P02769 25-607): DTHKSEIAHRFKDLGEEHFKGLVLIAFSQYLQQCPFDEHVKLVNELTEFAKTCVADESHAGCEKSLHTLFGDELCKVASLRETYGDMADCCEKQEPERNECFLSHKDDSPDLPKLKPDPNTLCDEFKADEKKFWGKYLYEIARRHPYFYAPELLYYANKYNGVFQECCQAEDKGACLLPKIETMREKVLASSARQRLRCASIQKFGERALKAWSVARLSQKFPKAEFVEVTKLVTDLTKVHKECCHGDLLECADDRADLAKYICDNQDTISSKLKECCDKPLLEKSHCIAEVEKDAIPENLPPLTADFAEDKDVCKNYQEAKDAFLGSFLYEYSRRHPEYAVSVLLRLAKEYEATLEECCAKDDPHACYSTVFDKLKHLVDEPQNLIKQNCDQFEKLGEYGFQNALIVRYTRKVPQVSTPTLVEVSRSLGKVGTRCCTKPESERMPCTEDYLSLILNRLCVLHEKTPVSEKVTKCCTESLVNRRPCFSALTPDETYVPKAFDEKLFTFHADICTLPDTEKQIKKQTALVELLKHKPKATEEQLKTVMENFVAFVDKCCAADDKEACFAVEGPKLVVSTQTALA

Consider `CC(=O)NCCCCCCCCCCCC(=O)NCCCCC(NC(=O)CCCCCCCCCCCNC(C)=O)C(=O)NCCCCC(NC(=O)C(CCCCNC(=O)CCCCCCCCCCCNC(C)=O)NC(=O)CCCCCCCCCCCNC(C)=O)C(=O)NCCCCC(NC(=O)C(CCCCNC(=O)C(CCCCNC(=O)C(CCCNC(=N)N)NC(=O)C(CCCNC(=N)N)NC(=O)C(CCCNC(=N)N)NC(C)=O)NC(=O)C(CCCNC(=N)N)NC(=O)C(CCCNC(=N)N)NC(=O)C(CCCNC(=N)N)NC(C)=O)NC(=O)C(CCCCNC(=O)C(CCCNC(=N)N)NC(=O)C(CCCNC(=N)N)NC(=O)C(CCCNC(=N)N)NC(C)=O)CC(=O)C(CCCNC(=N)N)NC(=O)C(CCCNC(=N)N)NC(=O)C(CCCNC(=N)N)NC(C)=O)C(N)=O` (stereo not shown) [Comparative Example 1-1], for which, in data set [1], the cytotoxicity result is “very high toxicity”. Besides, the cellular delivery efficiency entry in data set [2] is listed as “high cellular delivery efficiency”.
With `CC(=O)NCCCCCCCCCCCC(=O)NCCCCC(NC(=O)CCCCCCCCCCCNC(C)=O)C(=O)NCCCCC(NC(=O)C(CCCCNC(=O)CCCCCCCCCCCNC(C)=O)NC(=O)CCCCCCCCCCCNC(C)=O)C(=O)NCCCCC(NC(=O)C(CCCCNC(=O)C(CCCCNC(=O)C(CO)NC(=O)C(CO)NC(=O)C(CO)NC(C)=O)NC(=O)C(CCCNC(=N)N)NC(=O)C(CCCNC(=N)N)NC(=O)C(CCCNC(=N)N)NC(C)=O)NC(=O)C(CCCCNC(=O)C(CO)NC(=O)C(CO)NC(=O)C(CO)NC(C)=O)NC(=O)C(CCCNC(=N)N)NC(=O)C(NCCNC(=N)N)NC(=O)C(CCCNC(=N)N)NC(C)=O)C(N)=O` (stereo not shown) [Comparative Example 1-2, reference compound], in data set [3], the “binding to BSA (non-fouling property), EMSA” value is listed as “binds easily to BSA”. The “interaction with rRNA (non-fouling property), EMSA” value in data set [4] is on record as “forms a non-specific interaction with rRNA even under the low-concentration rRNA condition”. Moreover, in data set [1], the cytotoxicity entry is recorded as “very high toxicity”. Besides, in data set [5], the Net charge result is reported as “+6” and the “Zeta potential (mV)” value is “+52.8 mV”. Also, in data set [5] (DLS, in DW), the “Diameter (nm) in DW” value came out at 742.3 nm. In data set [5] (DLS, in PBS), the “Diameter (nm) in PBS” value is 5,688.2 nm. Moreover, in data set [2], the cellular delivery efficiency result was “high cellular delivery efficiency”.
